In US20030108912, “Liver enriched transcription factor” (published 2003):

Biological target: T1, HNF-4 Hph I truncation (Rattus norvegicus, UniProt P22449 SEQ:1-219)
T1 chain: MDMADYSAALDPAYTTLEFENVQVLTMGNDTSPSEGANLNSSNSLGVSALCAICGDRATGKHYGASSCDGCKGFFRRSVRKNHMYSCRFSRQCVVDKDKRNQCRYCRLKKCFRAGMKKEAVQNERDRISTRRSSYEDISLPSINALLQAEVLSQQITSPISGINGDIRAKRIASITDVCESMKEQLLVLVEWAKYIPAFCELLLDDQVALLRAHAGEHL
Assay: EMSA; zinc fingers present, dimerization region absent
Settings: label: 32P; four-base 5' overhangs

B1: APF1 (dsDNA)
DNA 1: TCGAGCGCTGGGCAAAGGTCACCTGC
DNA 2: GCAGGTGACCTTTGCCCAGCGCTCGA
- binding result: no binding
